According to patent US20260176374A1 (published 2026):

Assays:
Assay in all cases: BLI
19429 = target: 19429
14949 = target: 14949
19113 = target: 19113

B1: hEPOR (receptor)
chain: APPPNLPDPKFESKAALLAARGPEELLCFTERLEDLVCFWEEAASAGVGPGNYSFSYQLEDEPWKLCRLHQAPTARGAVRFWCSLPTADTSSFVPLELRVTAASGAPRYHRVIHINEVVLLDAPVGLVARLADESGHVVLRWLPPPETPMTSHIRYEVDVSAGNGAGSVQRVEILEGRTECVLSNLRGRTRYTFAVRARMAEPSFGGFWSAWSEPVSLLTPSDLDP
Question: What does the source list for B1?
Answer: Kd 19429: 0.8 nM; Kd 14949: 2 nM; Kd 19113: 2 nM
